Results from PMC5520057, “Modulation of nongenomic activation of PI3K signalling by tetramerization of N-terminally-cleaved RXRα” (Nature Communications, 2017).
Where “and” joins values, the source holds several entries; their conditions need not be identical. Identical values can stand only once.

B1: His-RXRα-LBD [human] / itself (parent)
chain: TSSANEDMPVERILEAELAVEPKTETYVEANMGLNPSSPNDPVTNICQAADKQLFTLVEWAKRIPHFSELPLDDQVILLRAGWNELLIASFSHRSIAVKDGILLATGLHVHRNSAHSAGVGAIFDRVLTELVSKMRDMQMDKTELGCLRAIVLFNPDSKGLSNPAEVEALREKVYASLEAYCKHKYPEQPGRFAKLLLRLPALRSIGLKCLEHLFFFKLIGDTPIDTFLMEMLEAPHQMT

Variants of: B1
Test: non-denaturing polyacrylamide gel electrophoresis, densitometry
Details: with itself

Variant | screen value (DMSO (no K-80003, no 9-cis-RA)) | screen value (K-80003) | screen value (K-80003 + 9-cis-RA)
chain 1 L211D | 54% and 46% | 43% and 57% | 59% and 41%
chain 1 F217A | 47% and 53% | 55% and 45% | 
chain 1 Q53E | 53% and 47% | 58% and 42% | 
